Assay: soluble on expression in E. coli; label from the status in PepcDB or PDB records
With “GPGSMRSQRVLQRTRKQKMESSSCASAPIAVDAQDVVVPPAVAQARAWLSLYGACCTEEEVEMHPVVLSRVLQAVELVQSRSCLSSGSEGPLAATTTKHTCRSGEGDAEAATARSSPTALHEGDDSKRGKGEAGLSIDFGGLWMLLSEWIAILRSLVATVPLHTLSLRDTALGDAGLRCLCRQVATTSVKPASLEVASRCEACSFHLLGLSTLAAPPSCPPTIPGSWAASTLRLLDLSGAALTDGGPLASLLASCPQLHSLNLSDNSLGSRDAGLALLCAALQVHPSLEVLSLRRNCISGSRNGPAIAALAELIVARSVEGSRTLSKACGYGSALCRQQTPAAAAVAAQPLRRLDLSHNLLGTYFLLSDATMTHRAEAGRPSAAREYDMASSSGRHVGVHEAVASFPLVAALYLNNTLIELNLHNNGLPGALLEYVEAKLHVNQRTTGGGADFSKTVSTEIIASTTVRQVLIHRLRCTLDHILAGTANASGMVGATHTERGDAPPTEVPAESQSSVLSAAERRWTTGEVSELVQRLVYNVASDLSLF” the “soluble on expression in E. coli” value was “not soluble”. For “GPGSMRYRLRLDAFAPAGSLPCCRILTQVRNLNMNRSVQTRWESDNQVASQKRTDYDFDKEQWSKQMRFASMDCVMDPDITPIKYTSVTGLKKVLRRFMTMRKLIDRRPDFKTDDLKKLFIQLKTISHSRSLEDLKVLQRLTTHGEASRISKEIKTRMNDEFAKKSWKSLKMQEVSNTYQIELDSFQLVNCYMGQMSKEDWLQITYKCEFRERKGDNEEWQSVCEYPVFEVRLGDGVQSPNTHHFIIVGIMRKDGTRYGKDAQDAASLRKQFDRSRKWF”, the “soluble on expression in E. coli” value was “not soluble”. With “GPGSMSALWARFTEKLKGSGYTLSDLVYCSEDTFLTLVANMNAFTPLQIASLAKEWQRSLSAAATPTATVSGSALPISRRHAESTRLSSSPVRSSALNRATLPATGAAETPPNHSTLSTALRKNSFVPPRRSPAKVKEEAEYLLTKLGAQSGAEYQVSLTEGIVAVEASPEAWGPLLDRVSRMHVTSHRDSAAAATPLATELQLLWKLCSPATLRKMEKACVSGAPFGLSNQDDADGLCSSAVVLYGKDATRLAAPAEELEQLFREGWGLVAFDVAVGKARTVTKEEAQDLNANLYRFSMEQCLEMLEEAGFDAFHIPSRNAVAVCHMHQLMPRFVVFVSTLEPVVVTRRLGDAVPAVGNGRPSRAPPAPAASPSPSAVAAAAAALPAARRSINGGDDVLVPASRSSRNSEDLQCAVHSKKTVEFWSPTEKRLLCSHCLYYDGYSQENCIPIEQAAREEAPRLERWVQNAITFSQEIKSVFDLFEAAQTDVSQTHKQVRSDIAHSFTRLRARLDALEANLQQQCQQKAQQNLQVLQDTLSRITATVQFVSEVVQDADEPVAAYRGGVADTNTCVALLRSAQRAFGAWEPVTISAYEDVRIVDGSALLQPVEEALKAVQSISSEAGKVQLPEAIDVNYLKSDCDV” the “soluble on expression in E. coli” value was “not soluble”. In the case of “GPGSMSKLISDAIAAEDASKWNTSYELYPPRSEKAEEDMMKVLVPNFMHQSPVFLDLTWGAGGRTSGTTMRLCKDLQHAHPDTPINMHITCTNTPKGLIKETLEFAKTHGIRNILALRGDPPSGEEFQVDPDGFACARDLVRYIRDTYGDYFCVSVAGYPEGHPSRIAENGTISHEDHQKELEYLKEKVDAGASFIITQLFYDASLYVKFVKRCREVGITVPILAGLLPITTYAGFVRMVSLCKTSVPSDVKKRVEELKENPDGLKEYGVEQCVQMIECIRASGLDYHHLHFYTLNNSAQIFKILKRLNALVE”, the “soluble on expression in E. coli” value is reported as “soluble”. In the case of “GPGSMSLIFFCIIPHPFTRTKCSKVSIIMQMLAPGAFFNALKVRGVTHFFGVPDPILKYFCAFVASHTTPKEHIITANEGNAVAMAAGYHLATGGLPLVYMKNSGLGDALNPLISLTHAEACSIPMFIVVGWRGAPDAGNELPCAAEGRLTEGILRAAEVPYIILSSACGNGEQSMETALDMALKHVHNSRTPYAFLVPPNFFEECAYEGVGEGIAELPMTRREAVEQALRQIDRGDIVVGAASFLAREIFEVQECAGMRHGPQFFPVGSMGHCSSVAAGIALAKPERQVFCFDGDGAFLMHMGSSATIGGVAAIHLIGTGETSLMRNYKHVVFNNGSHDSAGGQPTVSFDVSLTQVASACGFRTVREEPVMDLGETVRALQELKKAEGPAFLEVFVRRGGHSNPQCELPSLDESKQALTNCLRG”, the “soluble on expression in E. coli” value is reported as “not soluble”. With “GPGSMSNIKKVQTEADRLLKKVNEGLDAYDELHEKLANAPNASAKERLEGDLKRELKKLQRHREAMKSFMQNDDYKEKMKMQVSRKKIEERMETFRAIEREMKTKAFSNEGLASAALERADSATEQWLKDAIEEGRKKIELLEYEVQKANNGRVRRGKQQKSEYQIRLENLQTHFFKWESLLRMVNNEELDTDEVDDLQEPIQKVLEDDVDLDVMEDMSIYDSFDIPEPKAKPVVPFDVSDYEDKKVQSPKTTAKAKTPTSTVQAKPSPFITSPKETAASPPAAKAASSTPVPSSMQQPALAQAPQQQLLPPTANSPADDDIGEEEPVPEWMDDDMDTANDDTFGDAAMSGGFTIGSLAEMASATNKVTQDWEKSQKPVGSLEPKTVKVTDPVHGAPEEKRKPTPPVAAPTPNAWERRAAEQQSRQKVQQQQQKQAPEAASPVAPLGPVAAAAEASAPEAVTTSLINPVAATSPSTPAGSANTDPIQPFPPIPGAAPGSKFTPKKIHELLDMSLGNLPHTLDVQRQRPYEPPNAIDAIPYFPQEVLPVLSNKDVYHQMDLDTLFFIFYYHQKSYQQYFAAKELKARSYRYHTKQQRWYQRLERPQTTTETEERGSYTFFDFEDKWDHDRIDDFLFEYKYLENELH” the “soluble on expression in E. coli” value was “soluble”. With “GPGSMSSCTHPTSALFVDRQNGRTTCTICGDVVTTDQYELDPIFAQGGRQPASGGGLRGLAGSFRPATSYKGTHTGVIHSHSRPTIDKARREMLNISRQLEISEDTVERALGIYKVALNLNAVSGTRPSVLCACLYAACRRERTSHVIYDFSEINGEDPHTILSQMKYICHATHTEVPVIDPSCYVQRFAEQMDLGPQTTDVVVCALKVLRAMQDDWISCGRRPMGVCAAALLVACYVFGISRTPEQVCGMVRLTSNTIGKRLTEFAATPTARLENIDDYQPSHETLPPAFNDSSRKSTEEDVHASMRELSAIFYELVSEAKTSQPATPERCDKWRRFIMKHCELEGITPLEENLDLKGLPPAQQLHILGLPHTKPIPLEEVARSVKREEHRLLVKREASLQNGSDAGGSMSGARQGAVAGLLNNADVSSNGIPLYLLPDESLASSLAQASPAMGYADDGGMHSSSAAVGAASMDSPEQLRWMTDEYTRLLNSNAEVMHLRNDFDFADEDDANGAGGSSGGGAVAPPVSHPTQNQPFSCGLSQLRGGSPPPGTPAEEDPFGFFDRDDEGTRLALEEILYDRERRHALPWEFLVLPRVEEDDCTDILSYLVLDNEERLRRERIGVSLYGEKWKRGRARTDEEIQKLEEARASKRRRRSVIAEPAVDVPTAMERALRGRGAGTVNISQIGELLPGMLEFLEDEPQADWD” the “soluble on expression in E. coli” value was “not soluble”. With “GPGSMSSSDQFLVDELRSRLKRRRADIVRYLDGLFYEDCRRIIECVSELDSDNLFLRNPSSLPDYAQHVTRPMYWELIQRKLQRYEYRAAADFMADMRAVVNNCYLYNGIQAPASKLARAIEVLMEDRFVTELRAAPVQPAEVK” the “soluble on expression in E. coli” value was “not soluble”. For “GPGSMSVRIRFILTGACPPSYSGKQVQLNFPLEDENGAPTTTAHLKQLIRTQWPENMSEMKEVVEKTEMRVLKTGNLLSDDTQIRSVLTATELSECSINPSAEGSGRADEDQKSVLMHLVFQSNQSQGRQRDGSAGGGRRDNASHDSGCCTML”, the “soluble on expression in E. coli” value was “soluble”. In the case of “GPGSMTDFYSLIPSAPKGRFDGIERAHTAEDVKRLRGSVEIKYSLAEMGANRLWKLIHEEDFVNALGALSGNQAMQMVRAGLKAIYLSGWQVAADANTASAMYPDQSLYPANAGPELAKRINRTLQRADQIETAEGKGLSVDTWFAPIVADAEAGFGDPLDAFEIMKAYIEAGAAGVHFEDQLASEKKCGHLGGKVLIPTAAHIRNLNAARLAADVMGTPTLIVARTDAEAAKLLTSDIDERDQPFVDYEAGRTAEGFYQVKNGIEPCIARAIAYAPYCDLIWMETSKPDLAQARRFAEAVHKAHPGKLLAYNCSPSFNWKKNLDDATIAKFQRELGAMGYKFQFITLAGFHQLNYGMFELARGYKDRQMAAYSELQQAEFAAEADGYTATKHQREVGTGYFDAVSLAITGGQSSTTAMKESTETAQFKPAAE”, the “soluble on expression in E. coli” value is reported as “soluble”. For “GPGSMTHDSRTPQGKSRVSGGSSCFPSGYLNNESFDLNSETDHVSANSSTCHPAESYHLLLPRELQTPAQHFTTPEIPEISSHSPLCSALFSSVTEMQHQSVLEVGVASDQGIRSSMEDEHVTVVEPEVCFFGIYDGHGGRQCAEYVRARLHEITLAHECLKTDPRKAISDAFAQVEREFLGQNTNDMSSAGCVCAAAVVQGSVLTVGNVGDCEVVLARAGQPVLLTVKHNPSCNDAEATRVKKAGGCIFNCRVGHPRFNPRMCSLAVSRAVGDAGFKLEEYTNGKPSGIIAVADTSEVLLAKDDEFLILACDGLWDTMSYAEAVELATAYMASGADANSVADQLVGEALRRGTRDNVTAIFVRLGGSAQAGLGDANK”, the “soluble on expression in E. coli” value was “not soluble”. With “GPGSMVACTRLRRTQKVAKQKTETASNSHPRTSFLRRGRSTDCDIGALHVAATRVTLSVSHYATLLEGSVICVCFGFRLAAAAATNQLASSRLYRVPFAPLTSGLTNEKVLLRWSVAMSRKDAERKLTEDDCLTSSQQYDPQLIFYVPLRRKGYQAIDASAFVRCGGLRVVDISGNRLSTLSGLESVAPQLTFLNAAENSLHDIGALVTCAALERCMLEGNKLASVDSLQPLVSLPCLAELVLQRHVPLDDAAIGSGSPEQSSDKLLLLDNPVCRDAVAYREHFLAKMSHVRWVDGVSTYLRASSLAESTTTESHDAKENSTKAIVDAAIRSFQSIRVQMTATVSEETTLRHQLERAADRCKPSTVTVAARTP” the “soluble on expression in E. coli” value was “not soluble”. With “GPGSMWDVVSRVGKAAYRTAALTGLAAGTEQPPYPCALPLKTVSSDSDVDSMREVLNSAFDASKDMLENNGEHQWQLVDYVDPEEGGDLHLFTRPRVGPFNFVKATLSFMGVSPQNVLDTMHSDNADDRKRYSANLSHFEVLAKPMAGCAIELHKYWAPPPVAGREFVFAAEKKYVESENVYYVHGCSIDYTPQMETSKGFVRAACLWAWKLMPVGDNTLATYVSCMNPRGWTPPFIFGWLKSEIGKELVACRRVLYGETVKVERTTLQGMGLSDEVNNLTDEERKRMSEGEPQPEAS” the “soluble on expression in E. coli” value was “soluble”. With “GPGSMYVGCVGKDKHGDQIRSAAEADGTTMELEVSSDKRSGLCVVCRDGNSRTLVVHPSSASSLRDDFVSSAAAQEGQRSAKTVYTTAYASVVRVRQTLQLMTSSRCHTLPDGLKQLAAMGLANQRVLDDFGEGLVDVLGKLDIIIGNPEEMYDLAMMLQWVPSEMSDMVLAKKIATEMMCDRHGVRRVIMTRGAEPIIYAASAGESGEVPVVATCAHSAKLLATGAGDAFAGGFLAAMAAKPDDVAFCCRLSAQAATFMINHSLVTLRTDEACLAELQT” the “soluble on expression in E. coli” value was “not soluble”. With “GPGSTRCQRERLLYVRRFDPVRGYHLRAAEDISVGTIIFQDECRPVRLCTKPYALQHFSKADYVDFQHNAWPVGRDGHYYALWDHDPAQWRAFNHSCEPNMSFAPMRSLDVVALRNIPKGEELTMDYRQFMDSTMPGFQCNCGTEKCEGFVSPGSLVDSPTAKIASQPTVALRHNIAVRLNPI” the “soluble on expression in E. coli” value was “not soluble”. For “GPLGSDDVEWVVGKDKPTYDEIFYTLSPVNGKITGANAKKEMVKSKLPNTVLGKIWKLADVDKDGLLDDEEFALANHLIKVKLEGHELPADLPPHLVPPSKRRHE”, the “soluble on expression in E. coli” value was “soluble”. For “GPLGSKNMLLEWCRAMTRNYEHVDIQNFSSSWSSGMAFCALIHKFFPEAFDYAELDPAKRRHNFTLAFSTAEKLADCAQLLEVDDMVRLAVPDSKCVYTYIQELYRSLVQKGLVKTKKK”, the “soluble on expression in E. coli” value was “soluble”. With “GPLGSLYAIVLYDFKAEKADELTTYVGENLFICAHHNCEWFIAKPIGRLGGPGLVPVGFVSIIDIATGYATGNDVIEDIKSVNLPTVQEWKSNIARYKASNISLGSVE” the “soluble on expression in E. coli” value was “soluble”. In the case of “GPLGSPEFMEGVLYKWTNYLTGWQPRWFVLDNGILSYYDSQDDVCKGSKGSIKMAVCEIKVHSADNTRMELIIPGEQHFYMKAVNAAERQRWLVALGSSKASLTDTRT”, the “soluble on expression in E. coli” value is reported as “soluble”.
